Measured values as given in US20200332017A1 (SALUBRIS CHENGDU BIOTECH, published 2020).
Where two headings read alike, the source gives them in different places. Each block holds one binder with its values, some of them ahead of it.

Columns and labels:
[1] = molecular target: T1, human CD40-Fc protein (amino acid residue 21-193 of SEQ ID NO: 67 linked to N-terminus of amino acid residue … (human, biotin-labeled in the capture ELISA and in the benchmark blocking ELISA; unlabeled when coated in the ligand blocking ELISA); experiment: capture ELISA; antibody captured, biotin-labeled human CD40-Fc in solution
T1 construct: also called biotin-labeled human CD40-Fc; human CD40-Fc-biotin
Protocol: (§1) Plates were washed 4 times with wash buffer (PBS+0.05% Tween-20, PBST) and then blocked with 200 μl/well blocking buffer (5% w/v non-fatty milk in PBST) for 2 hours at 37° C. […] After a final wash, plates were incubated with 100 μl/well ELISA substrate TMB (Innoreagents, Cat # TMB-S-002). The reaction was stopped in 15 minutes at 25° C. with 50 μl/well 1M H₂SO₄, and the absorbance was read at 450 nm and plotted against antibody concentration. Data were analyzed using Graphpad Prism software and EC₅₀ values were reported.

[2] = molecular target: T2, full length human CD40 (uniprot # P25942-1) on the membrane of 293T-CD40 cells (human, UniProt P25942 21-277); experiment: flow cytometry on 293T-CD40 cells
T2 construct: also called cell surface CD40
Protocol: 2×10⁵ cells per well in 96 well-plates were incubated with the mouse anti-CD40 antibodies or the controls of various concentrations in FACS buffer for 40 minutes on ice. […] Following an incubation of 40 minutes at 4° C. in dark, cells were washed three times and resuspended in FACS buffer. Fluorescence was measured using a Becton Dickinson FACS Canto II-HTS equipment and plotted against antibody concentration.

[3] = molecular target: T3, cynomolgus monkey CD40-his protein (Acro biosystems, Cat # CD0-052H6) (cynomolgus monkey, UniProt G7PG38 21-193); experiment: SPR, Biacore T200; antibody captured, antigen flowed; 1:1 Langmuir fit
T3 construct: Bought reagent; also called Cynomolgus CD40-his
Text: (§2) Briefly, goat anti-mouse IgG (GE healthcare, Cat # BR100838, Mouse Antibody Capture Kit) was covalently linked to a CM5 or a Protein G chip (carboxy methyl dextran coated chip) via primary amines, using a standard amine coupling kit provided by Biacore (GE healthcare, Pittsburgh, Pa., USA). Un-reacted moieties on the biosensor surface were blocked with ethanolamine. […] Then, human CD40-his (Acro biosystems, Cat # CD0-H5228) or cynomolgus monkey CD40-his protein (Acro biosystems, Cat # CD0-052H6) in HBS EP buffer (provided by Biacore) was flowed onto the chip at a flow rate of 30 μL/min. The antigen-antibody association kinetics was followed for 2 minutes and the dissociation kinetics was followed for 10 minutes. The association and dissociation curves were fit to a 1:1 Langmuir binding model using BIA evaluation software.

[4] = molecular target: T4, Human CD40-his protein (Acro biosystems, Cat # CD0-H5228) (human, UniProt P25942 21-193); experiment: as above
T4 construct: Bought reagent; not shown: his tag
Text: as §2

[5] = molecular target: T2, full length human CD40 (uniprot # …); experiment: cell-based or functional assay
[6] = molecular target: T1, human CD40-Fc protein (amino acid …); experiment: competitive ELISA; coated human CD40-Fc, competitor biotin human CD40L-his
Protocol: (§3) Briefly, human CD40-Fc proteins (amino acid residue 21-193 of SEQ ID NO: 67 linked to N-terminus of amino acid residue 99-330 of SEQ ID NO.: 24) were coated on 96-well micro plates at 2 μg/mL in coating buffer (PBS) and incubated overnight at 4° C. The next day, plates were washed with wash buffer (PBS+0.05% Tween-20, PBST), and blocked with 5% w/v non-fatty milk in PBST for 2 hours at 37° C. Plates were then washed again using wash buffer.
(§4) Serially diluted the mouse anti-CD40 antibodies of the present invention or the controls (starting at 200 nM with a four-fold serial dilution) in 2.5% w/v non-fatty milk in PBST were prepared to the plates and incubated with the human CD40-Fc proteins at room temperature for 40 minutes. […] Plates were washed again. 100 μl/well of streptavidin conjugated HRP was added and incubated for 40 minutes at 37° C. Plates were washed again using wash buffer. Finally, TMB was added and the reaction was stopped using 1M H₂SO₄, and the absorbance was read at 450 nm. Data were analyzed using Graphpad Prism software and IC₅₀ values were reported.

[7] = molecular target: T1, human CD40-Fc protein (amino acid …); experiment: capture ELISA (antibody captured on coated anti-IgG F(ab')2, biotin-labeled human CD40-Fc in solution, streptavidin-HRP, OD(450-630))
Protocol: as §1

[8] = molecular target: T1, human CD40-Fc protein (amino acid …); experiment: ligand blocking ELISA: human CD40-Fc coated, antibody titrated, then biotin-labeled human CD40L-his (blocked ligand), streptavidin-HRP, OD(450-630)
Protocol: as §3, §4

[9] = molecular target: T1, human CD40-Fc protein (amino acid …); experiment: capture ELISA (antibody captured on coated anti-IgG F(ab')2, biotin-labeled human CD40-Fc in solution, streptavidin-HRP, OD(450-630)); remark: listed apart in the source
Protocol: as §1

[10] = molecular target: T4, Human CD40-his protein (Acro …); experiment: SPR, Biacore; antibody captured, human CD40-his flowed
Text: as §2

[11] = molecular target: T1, human CD40-Fc protein (amino acid …); experiment: capture ELISA; antibody captured, biotin-labeled human CD40-Fc in solution; remark: listed apart in the source
Protocol: as §1

EC50 [1]: 0.19 nM | EC50 [2]: 0.538 nM | Kd [3]: 0.486 nM | koff [3]: 0.00119 s⁻¹ | kon [3]: 2.45e+06 M⁻¹ s⁻¹ | Kd [4]: 0.217 nM | koff [4]: 0.000542 s⁻¹ | kon [4]: 2.49e+06 M⁻¹ s⁻¹ | Cell-based Reporter assay (EC50, nM) [5]: 3.65 nM | IC50 [6]: 5.19 nM | EC50 (read off the curve) [7]: ~0.02 µg/mL | IC50 (read off the curve) [8]: ~5 nM | EC50 (read off the curve) [9]: ~0.2 nM
B1: mouse anti-CD40 monoclonal antibody C1C1 (antibody, V domains shown)
VH: EVKLVESGGGLVKPGASLKLSCAASGFTFSNYGMSWVRQNSDKRLEWVASISSGGDDTYYPDNVKGRCTISRENAKNTLYLEMSSLKTEDTALYYCTRAGGKAMDYWGQGTSVTVST
VL: DIVLTQSPATLSVIPGNSVSLSCRASQSIRDNLHWYQQKSHESPRLLINYASQSISGIPSRFSGSGSGTDFTLTINSVETEDFGIYFCQQFNSWPLTFGGGTKLELK
notes: those are used here for the chimeric antibody only; also called Mouse C1C1; mouse C1C1

Kd [10]: 7.09 nM | koff [10]: 0.00575 s⁻¹ | kon [10]: 810000 M⁻¹ s⁻¹ | EC50 [11]: 0.236 nM
B2: chimeric antibody C1C1 (antibody, human IgG1, kappa, V domains shown)
VH: B1 VH
VL: DIVLTQSPATLSVIPGNSVSLSCRASQSIRDNLHWYQQKSHESPRLLINYASQSISGIPSRFSGSGSGTDFTLTINSVETEDFGIYFCQQFNSWPLTFGGGTKLELKR
notes: also called chC1C1; chimeric C1C1
